Test results from the nanobody polyreactivity screen of Harvey et al. (2022).

Assay: yeast display, Sf9 membrane polyspecificity reagent, FACS + sequencing; frameworks hold sequencing errors
In short: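 In a synthetic yeast display library (Saccharomyces cerevisiae BJ5465), nanobody expression was induced with galactose for 36–48 hours. FACS gates were set low and high (top ~1%) using anti-HA fluorescence for expression and streptavidin fluorescence for binding of the Sf9 membrane reagent. Each polyreactivity label is drawn from the gate of origin.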
In the case of “QVQLVESGGGIVQAGGSLRLSCAASGRTFRGNAMGWSRQAPVKERELVATIRRPGGSTYYADSVKGRFTISRDNAKNTVYLQMNSLKPEDTAVYYCNALNYYLYDKTFDYWGQGTKVTVSS”, the “polyreactivity (PSR sort gate)” value is reported as “high polyreactivity”.
In the case of “QVQLVESGGGIVQAGGSLRLSCAASGRTFRGNAMGWYRQAPGKERELVAAISWSGGRTYYADSVKGRFTISRDNAKNTVYLQMNSLKPEDTAVYYCNRLTRRWYSLRSFDYWGQGTQVTVSS”, the “polyreactivity (PSR sort gate)” value is reported as “high polyreactivity”.
For “QVQLVESGGGIVQAGGSLRLSCAASGRTFSPYAKGWYRQAPGKERELVAAITLSGSSTYYADSVKGRFTISRDNAKNTVYLQMNRLKPEDTAVYYCAADYLYSWYRYVTYDYWGQGTQVTVSS”, the “polyreactivity (PSR sort gate)” value was “high polyreactivity”.
With “QVQLVESGGGIVQAGGSLRLSCAASGRTFYGNVMGWYRQAPGKERELVATISFSAGSTYYADSVKGRFTISRDNAKNTVYLQMNSLKPEDTAVYYCNADHTDYASGGGNYWGQGTQVTVSS” the “polyreactivity (PSR sort gate)” value was “low polyreactivity”.
In the case of “QVQLVESGGGIVQAGGSLRLSCAASGSIFDSNAMGWYRQAPGKERELVAAITGSGTSTYYADSVKGRFTISRDNAKNTVYLQMNSLKPEDTAVYYCAAAPEYLTDHDYWGQGTQVTVSS”, the “polyreactivity (PSR sort gate)” value is reported as “low polyreactivity”.
For “QVQLVESGGGIVQAGGSLRLSCAASGSIFKTNPMGWYRQAPGKERELVADISPSSGRTYYADSVKGRFTISRDNSKNTVYLQMNCLKPDDTAVYYCNRLSRRGYDYWGQGTQVTVSS”, the “polyreactivity (PSR sort gate)” value was “high polyreactivity”.
In the case of “QVQLVESGGGIVQAGGSLRLSCAASGSIFQGNAMGWYRQAAGKERELVAAITYSGGSTYYADSVKGRFTISRDNAKNTVYLQMNSLKPEDTAVSYCNTTLRDSRQYVDRAPYTRYDYWGQGTQVTVSS”, the “polyreactivity (PSR sort gate)” value is reported as “low polyreactivity”.
In the case of “QVQLVESGGGIVQAGGSLRLSCAASGSIFSENTMGWYRQAPGKKRELVADITSGGSTNYADSVKGRFTISRDNAKNTVYLQMNSLKPEDTAVYYCNADWEAYKYNYWGQGTQVTVSS”, the “polyreactivity (PSR sort gate)” value is reported as “low polyreactivity”.
In the case of “QVQLVESGGGIVQAGGSLRLSCAASGSIFSRKVMGWYRQAPGKDRELVAAISWSGSSTSYADSVKGRFTISRDTAKNTVYLQMNSLKPEDTAVYYCNRYFGQGYWGQGTQVTVSS”, the “polyreactivity (PSR sort gate)” value is reported as “high polyreactivity”.
With “QVQLVESGGGIVQAGGSLRLSCAASGSIFVHNDMGWYRQAPGKERELVARINTGGGTNYADSVKGRFTISRDNAKNTVYLEMNSLKPEDTAVYYCATDGDRYDHYFTDPEFDYWGQGTQVTVSS” the “polyreactivity (PSR sort gate)” value was “low polyreactivity”.
For “QVQLVESGGGIVQAGGSLRLSCAASGSIVRGYAMGWYRQAPGKERELVAAITFSGGSTYADSVKGRFTISRDNAKNTVYLQMNSLKPEDTAVYYCAAKRTGHNWFTVYPYYSWGQGTQVTVSS”, the “polyreactivity (PSR sort gate)” value was “low polyreactivity”.
With “QVQLVESGGGIVQAGGSLRLSCAASGSIYRYNTMGWYRQEPRKERELVATITRRGGSTYYADSVQGRFTISRDNAKNTVYLQMNSLKPEDTAVYYCNADYFGGPYNYWGQGTQVTVSS” the “polyreactivity (PSR sort gate)” value was “low polyreactivity”.
In the case of “QVQLVESGGGIVQAGGSLRLSCAASGSTFAYYAIGWYRQAPGKEREFVATITWTGGSTNYADSETGRFTISRDNAKNSVYLQMNSLKPEATAVYYSAASFVISYDYWGQGTQVTVSS”, the “polyreactivity (PSR sort gate)” value is reported as “high polyreactivity”.
In the case of “QVQLVESGGGIVQAGGSLRLSCAASGSTFDVNAMGWYRQAPGKERELVAAISWNSGSTYYADSVKGRFTISRDNAKNTVYLQMNSLKPEDTAVYYCAATYGTGRRSKYGYWGQGTQVTVSS”, the “polyreactivity (PSR sort gate)” value is reported as “high polyreactivity”.
In the case of “QVQLVESGGGIVQAGGSLRLSCAASGSTFNYYAMGWYRQAPGKERELVAAISISGGSTYYADSVKGRFTISRDNAKNTVYLQMNSLKPEDTAVYYCAAVPYGFVGYDDYWGQGTQVTVSS”, the “polyreactivity (PSR sort gate)” value is reported as “low polyreactivity”.
With “QVQLVESGGGIVQAGGSLRLSCAASGSTFRLYAMGWYRQAPGKERELVAAITWSVGSTYYADSVKGRFTISRDNAKNTVYLQMNSLKPEDTAVYYCAADRIGYYLRVSYRGKYDHWGQGTQVTVSS” the “polyreactivity (PSR sort gate)” value was “low polyreactivity”.
For “QVQLVESGGGIVQAGGSLRLSCAASGSTFTANAMGWYRQAPGKERELVAAISRSGGSTYYADSVKGRFTISRDNAKNTVYLQMNSLKPEDTAVYYCAAESPLFSPPDGEDYWGQGTQVTVSS”, the “polyreactivity (PSR sort gate)” value was “low polyreactivity”.
With “QVQLVESGGGIVQAGGSLRLSCAASGSTFYDYAMGWYRQAPGKETELVAAITRGGSTYYADSVKGRFTISRDNAKNTVYLQMNILKPEDTAVFYCAKYLTCAAYLVPEYDYWGQGTQVSVSS” the “polyreactivity (PSR sort gate)” value was “low polyreactivity”.
In the case of “QVQLVESGGGIVQAGGSLRLSCAASGSTFYRYAMGWYRQAPGKERELVATITNSGGSTYYADSVKGRFTISRDNAKNTVYLQMNSLKPEDTAVYYCARVRSRNTGYYYWGQGTQVTVSS”, the “polyreactivity (PSR sort gate)” value is reported as “high polyreactivity”.
In the case of “QVQLVESGGGIVQAGGSLRLSCAASGSTLWGNVMRSYRQAPGKERELVAVISKTGGSTYYADSVKGRFTISRDNAKNTVYLQMNSLKPEDSAVYYCATRWPYRSDWGLGTQVTVSS”, the “polyreactivity (PSR sort gate)” value is reported as “high polyreactivity”.
With “QVQLVESGGGIVQAGGSLRLSCAASGSTVVIYTMGWSRQAAGKEREFVASLSVSGGSTYYADSVKGRFTISRDYAKKTVYLQMNSLKPEDTAVYYCAAGYPYYYWTPYYYWGQGTQVTVSS” the “polyreactivity (PSR sort gate)” value was “high polyreactivity”.
For “QVQLVESGGGIVQAGGSLRLSCAASGTLGSYRQAPGNEWELVAAISQSGGSTYYADSVKGRFTISRDNAKNTVYLQMNSLKPEDTAVYYCAVDPRYGHPRRDYWGQGTQVTVSS”, the “polyreactivity (PSR sort gate)” value was “low polyreactivity”.
For “QVQLVESGGGIVQAGGSLRLSCAASGYTFGRYAMGWYRQAPGKERELVAGIRWRGGSTYYADSVKGRFTISRDNAKNTVYLQMNSLKPEDTAVYYCAAYGYPVYYNYHYDYWGQVTQVTVSS”, the “polyreactivity (PSR sort gate)” value was “high polyreactivity”.
In the case of “QVQLVESGGGIVQAGGSLRLSCAASVFTFSDYTMGWYRQAPGKERELVAAINRGGNTYYADSVKGRFTISRDNAKNTVYLQMNSLKPEDTALYYCAAASYYAPYYWGQCTQVTVSS”, the “polyreactivity (PSR sort gate)” value is reported as “high polyreactivity”.
In the case of “QVQLVESGGGIVQAGGSLRLSCAATGFIFDQNAMAWYIQAPGKERELVAAISKRGGSTYYADSVKGRFTISRDNAKNTVYLQMNSLKREDTAVYYGATRSWGPYYYGYNHWGQGTQVTVSS”, the “polyreactivity (PSR sort gate)” value is reported as “high polyreactivity”.
With “QVQLVESGGGIVQAGGSLRLSCAATGSIFGNYAMGWYRQAPGKERELVAAITSSGGTYYADSVKGRFTISRDNAKNTVYLQMNSLKPEDTAVYYCAARYYSYRHQSVKYGYWGQGTQVTVSS” the “polyreactivity (PSR sort gate)” value was “high polyreactivity”.
In the case of “QVQLVESGGGIVQAGGSLRLSCAGSGIIFWYYAMGWYRQAPGKERELVAAISQSGGRTYYADSVKGRFTISRDNAKNTVYLQMNSLKPEDTAVYYCAAGLVYRWSTTPRRLYYYWGQGTQVTVSS”, the “polyreactivity (PSR sort gate)” value is reported as “high polyreactivity”.
With “QVQLVESGGGIVQAGGSLRLSCTASGFTFVYYAMGWYRQAPGKERELVASISRSGGSTYYADSVKGRFTISRDNAKNTVYLQMNSLKPEDTGVYYCNARYGRTALLDYWGQGTQVTVSS” the “polyreactivity (PSR sort gate)” value was “high polyreactivity”.
In the case of “QVQLVESGGGIVQAGGSLRLSSAASGRIFPYYAMGWYRQSPGKERELVAAINWRGTRTYADSVKWRFTISRDNAKYTVYFQMTSLNPEDTAVYYCAARTLYFSKYDYWGLGTQVTVSS”, the “polyreactivity (PSR sort gate)” value is reported as “high polyreactivity”.
For “QVQLVESGGGIVQAGGSLRLSSAASGRIFRYYAMGWYRQAPGKERQLVAAISGSGGITYYADSVKGRFTISRDNAKNTVYLQLNRLKPEDTAVYYCAARYGIRPSVSGGYWGQGTQVTVSS”, the “polyreactivity (PSR sort gate)” value was “high polyreactivity”.
For “QVQLVESGGGIVQAGGSLRLTCAASGITFYKYDMGWYRQAPGKDRELVAAISFRGGNTNYADSVKGRFTISRDNAKNTVYLQMNILKPEDTAVYYCAAYSYTWFYEYGYWGQGTQVTVSS”, the “polyreactivity (PSR sort gate)” value was “high polyreactivity”.
In the case of “QVQLVESGGGIVQAGGSLRLTCAASGRIFLANAMGWYRQAPGKERELVAAISLSGGRTYYADSLKGRFTISRDNAKNSVYFQRNSLKPEDTAVYYCAAEFYPIRYYGGYDYWGQGTQVTVSS”, the “polyreactivity (PSR sort gate)” value is reported as “low polyreactivity”.
With “QVQLVESGGGIVQAGGSLRVSCAASGTMGWYRQAPGKERELVAAISQSGGSTYYADSVKGRFTISRDNAKNTVYLQMNSLKPEDTAVYYCAVDPGYGHPRRDYWGQGTQVTVSS” the “polyreactivity (PSR sort gate)” value was “low polyreactivity”.
With “QVQLVESGGGIVQAGGSLSLSCAASGNIFTAYAMGWYRQAPGKERELVATITSSGDSTYYADSVKGRFTISRDNAKNTVYLQMNRLKPEDTSVYYFATADPSASNEVYEYDYWGQGTQVTVSS” the “polyreactivity (PSR sort gate)” value was “low polyreactivity”.
In the case of “QVQLVESGGGIVQAGGTLRLSCAASGIIFGSYAMGWYRQEPGKERELVAAINSSGGSTHYADSVKGRFTISRDNSKNTVYLQMNSLKPEDTAVYYCAADGYWRDYSGYWDYYYIYDYCGQGTQVTVSS”, the “polyreactivity (PSR sort gate)” value is reported as “low polyreactivity”.
For “QVQLVESGGGIVQAGGTLRLSCAPYGSNYYAMACYRQAPGKDRDFVAAITTRGGGTYYADSVKGRFTISRDNAQNTVYLQMFSLKPVDTAVYVCAAEDYRPRTYVYRYRYYYWGQGTQVTVSS”, the “polyreactivity (PSR sort gate)” value was “high polyreactivity”.
With “QVQLVESGGGIVQAGRSLRLSCAASGRTFHGYAMGWYRQAPGKERELVAAITGTGGRTYYAESVKGRFTISRDKAKNTVYLQMNSLKPEDTAVYYCAARPWIKSGYWGQGTQVTVSS” the “polyreactivity (PSR sort gate)” value was “high polyreactivity”.
For “QVQLVESGGGIVQAGRSLRLSCPASGLIFGPYTMGWYRQAPGKERELVAAISRSGGITYYADSVKGRFTISRDNATNTVYLQMNSLKPEDTAVYYCAARLVRESEPLGYWGQGTQVTLSS”, the “polyreactivity (PSR sort gate)” value was “high polyreactivity”.
For “QVQLVESGGGIVQAGVSLRLISAASGRIFRINAMGWYRQAPGKERDLVADITSGGSTNYADSVKGRFTISRDNAKITVYLQMNSLKPEDTAVYFCAPGYVTYRTRLDYWGQGTQVTVSS”, the “polyreactivity (PSR sort gate)” value was “low polyreactivity”.
In the case of “QVQLVESGGGIVQAGVSLRLSCAASGISYSPNVMGWYRQAPGKERELVASISSGGSTYYADSVNGRFTISRDNATNSVYLQMNSLKPEDTAVYYCAAEVDGYWTYYYWGQGTQVTVSS”, the “polyreactivity (PSR sort gate)” value is reported as “low polyreactivity”.
In the case of “QVQLVESGGGIVQAVGSLRLSCAASGSTFRLYAMGWYRQAPGKERELVAAISSNGVRTYYADSVKGRFTISRDNAKNTVYLQINSLKPEDTAVYYCAARVYPAYPRGYDYWGQGTQVNVSS”, the “polyreactivity (PSR sort gate)” value is reported as “high polyreactivity”.
In the case of “QVQLVESGGGIVQEAGSLSLSCAASRLTFTTYNMGWSRPAPGKERELVAALSSRGGSTYYADSVKGRFTISRDNAKNTVYLEKNSLKPEDTAVDYCNAPRPHRMDWGQGTQVTVSS”, the “polyreactivity (PSR sort gate)” value is reported as “high polyreactivity”.
With “QVQLVESGGGIVQPGGRLRLSCAASGSILYGYAMGWYRQAPGKERELVAVITSGGSTNYADTVKGRFTISRDNAKNTVYLQMNSLKPEDTAVYYCAADPYSVYGGDYWGQGTQVTVSS” the “polyreactivity (PSR sort gate)” value was “low polyreactivity”.
